# Source: patent publication US20120107364A1 (ACTGEN, published 2012)
# T1: PODXL2, positions 1 to 410 (human, UniProt O00592 23-442)
# T1 construct: Encoded as positions 1-410 in pMX-SST and expressed on Ba/F3 cells; The vector-encoded part is not described; also called R410
# T1 sequence: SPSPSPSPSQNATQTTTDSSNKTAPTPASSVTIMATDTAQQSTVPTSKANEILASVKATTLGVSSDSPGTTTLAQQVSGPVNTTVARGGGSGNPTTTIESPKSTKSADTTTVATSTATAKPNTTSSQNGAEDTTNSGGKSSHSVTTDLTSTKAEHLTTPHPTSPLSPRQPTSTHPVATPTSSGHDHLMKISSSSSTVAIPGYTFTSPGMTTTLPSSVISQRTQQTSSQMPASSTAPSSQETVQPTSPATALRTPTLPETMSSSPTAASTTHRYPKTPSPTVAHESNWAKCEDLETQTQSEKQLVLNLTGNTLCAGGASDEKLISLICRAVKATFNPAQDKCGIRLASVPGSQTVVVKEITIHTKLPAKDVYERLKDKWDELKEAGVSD
# B1: ACT36-27-5D1 antibody (antibody, V domains shown)
# VH: EVQLQQSGPELVKPGASVKMSCKASGYTFTSYVMHWVKQKPGQGLEWIGYIHPYNDGIKYNEKFKGKATLTSDKSSSTAYMDLSSLTSEDSAVYYCARSWDWYFDVWAAGTTVTVSS
# VL: QIVLTQSPAIMSASPGEKVSMTCSASSSVSYMHWYQQKSGTSPKRWIYDTSKLASGVPARFSGSGSGTSYSLTISSMEAEDAATYYCLQWSSNPPTFGGGTKLE
# notes: also called anti-PODXL2 antibody ACT36-27-5D1; anti-ACT36-27-5D1 monoclonal antibody
# Molecular target: T1, PODXL2, positions 1 to 410
# Assay: flow cytometry on Ba/F3 cells expressing the truncated PODXL2
binder,measurement,value
B1,binding result,binds
